Experimental findings from the supplement of paper PMC10567573 are described below.

The series in a line: protein stability index of a GFP-peptide fusion (GPS, HEK-293T) (PSI 1-6); higher = more stable.
[1] abbreviates: treatment: DMSO, c terminus: a fixed tail appended.
Where [2] appears, read: treatment: MLN4924 1 uM, 8 h, c terminus: a fixed tail appended.

± gives the standard deviation.
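Also: 24-mer peptide tiles fused after GFP, lentivirally expressed, FACS-sorted into six equal bins by GFP/DsRed ratio, decoded by Illumina sequencing, PSI is the read-weighted mean bin number.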

For the sequence LPKEASDGTGASQEPPTTDSQEAQ [TOR1AIP2], the protein stability index under setting [1] is 5.65 ± 0.29 and the protein stability index under setting [2] is 5.54 ± 0.2.
Taken in the same sequence, the figures for LPSAQDINRLVGLQNTYMGYLDYR [GLT8D2] were 2.52 ± 0.28 and 2.52 ± 0.38.
For the sequence LPSWAELLRPKYRAPQGCSGVDEC [PBXIP1], the protein stability index turned out to be 2.83 ± 0.11 under setting [1] and 2.69 ± 0.46 under setting [2].
The matching figures for LQHLIGLSNLTHVLYPVPLESYED [PRAME]: 2.3 ± 0.24 and 2.54 ± 0.12.
The matching figures for LQLSEFLCEEFRNRNQRIVQLIQD [CPN1]: 2.56 ± 0.25 and 2.71 ± 0.39.
With LQRLSHSGSRVRVGFRLCNSTGGD [SCNN1D], the protein stability index turned out to be 3.14 ± 0.22 under setting [1] and 3.11 ± 0.18 under setting [2].
Taken in the same sequence, the figures for LRCLDRDEPSKPTLALEYTYGRRA [DYNC2LI1] were 3.45 ± 0.14 and 3.41 ± 0.32.
On to LRGGRGGSGGTRGPPSRGGHMDDG [RBMX], for which the protein stability index by setting is: under setting [1], 5.26 ± 0.19; under setting [2], 5.3 ± 0.34.
Consider LRMMVENIMNKEAFMNQEITKAFH [RHOBTB1], for which the protein stability index was 2.28 ± 0.5 under setting [1] and 2.2 ± 0.24 under setting [2].
Taken in the same sequence, the figures for LRNIQGLFAPLKLQMEFKAVQQVQ [POMP] were 2.25 ± 0.44 and 2.28 ± 0.11.
The matching figures for LRRTGCAALRIANCKLFRLQLQQG [GAN]: 2.33 ± 0.47 and 2.13 ± 0.28.
The matching figures for LRVLPNLPCVVQEGAIVMARGRHV [PYCR3]: 2.63 ± 0.37 and 2.73 ± 0.22.
For LSDFGLCTGLKKAHRTEFYRNLTH [STK38L], the protein stability index by setting is: under setting [1], 2.41 ± 0.6; under setting [2], 2.2 ± 0.27.
The matching figures for LSESETGPMEEVERQVLPDPEVLE [PBXIP1]: 5.6 ± 0.31 and 5.61 ± 0.16.
Taken in the same sequence, the figures for LSKSRENPEEDEDQRNPAKESLET [SOAT1] were 5.47 ± 0.27 and 5.66 ± 0.34.
The matching figures for LSLSNATVLTRSLFLGRILSLTSS [FANCE]: 3.06 ± 0.64 and 2.88 ± 0.34.
As for LSYRNGYAIVRRPTVGIGGDRLQF [EFHC1], the protein stability index runs as follows: under setting [1], 2.23 ± 0.24; under setting [2], 2.35 ± 0.29.
Taken in the same sequence, the figures for LTAALLTFDTGCLTLSQYILLDPI [POMT2] were 3.36 ± 0.32 and 3.12 ± 0.14.
The matching figures for LTGLQLKLGPALKIYEYHVKPLQT [SAMD13]: 2.26 ± 0.29 and 2.47 ± 0.42.
Taken in the same sequence, the figures for LTGQKAVKVHGLLKTFVKQTDHIK [GFOD1] were 2.85 ± 0.29 and 2.59 ± 0.27.
On to LTHIEAQNKIRACGERLSLGLSRA [PDLIM7], for which the protein stability index was determined as 2.83 ± 0.27 under setting [1] and 2.85 ± 0.12 under setting [2].
Taken in the same sequence, the figures for LTLCKSDLESQVESLREELICLKK [KRT34] were 2.89 ± 0.87 and 2.65 ± 0.27.
Taken in the same sequence, the figures for LTRFLSRVIKCDPDCLRACQEQIE [CCND1] were 2.34 ± 0.16 and 2.56 ± 0.07.
Taken in the same sequence, the figures for LTTASIIQLGVTPPGYSAWIKEEA [SLC6A17] were 2.6 ± 0.23 and 2.82 ± 0.31.
For the sequence LWVPQPPPRTIKRTRRRLSRNRDP [PWWP2B], the protein stability index by setting is: under setting [1], 3.44 ± 0.35; under setting [2], 3.82 ± 0.33.
The matching figures for LYDLRADREVAIYSKESIIFGASS [GNB5]: 2.51 ± 0.27 and 2.72 ± 0.27.
The matching figures for LYFSIHRYEQGRFWPHLKASNWST [HDAC6]: 2.77 ± 0.66 and 2.73 ± 0.64.
Taken in the same sequence, the figures for LYLKQSDLASAAAKQIMEETYKME [INTS4] were 3.05 ± 0.17 and 3.3 ± 0.23.
On to LYQRAPRNIHRHVILSEIKEAVAA [TCF25], for which the protein stability index by setting is: under setting [1], 2.75 ± 0.34; under setting [2], 2.7 ± 0.25.
Taken in the same sequence, the figures for MASRKTKKKEGGALRAQRASSNVF [MYL5] were 4.13 ± 0.15 and 4.05 ± 0.25.
As for MATLNRTAAGLMHTFNAHAATDIT [SEPHS2], the protein stability index is, setting by setting: under setting [1], 2.95 ± 0.053; under setting [2], 3.01 ± 0.19.
The matching figures for MAVPPGHGPFSGFPGPQEHTQVLP [DYRK1B]: 3.75 ± 0.29 and 3.66 ± 0.065.
The matching figures for MCTKMEQPFYHDDSYTATGYGRAP [JUNB]: 3.19 ± 0.19 and 3.25 ± 0.24.
Taken in the same sequence, the figures for MEACMDGHVEVARLLLDSGAQVNM [ANKRD17] were 2.98 ± 0.32 and 3.06 ± 0.28.
In the case of MEEMSGESVVSSAVPAAATRTTSF [KCTD10], the protein stability index runs as follows: under setting [1], 4.76 ± 0.28; under setting [2], 4.82 ± 0.49.
The matching figures for MEQFCWPHLRSFCETCVGSWSIQM: 2.82 ± 0.44 and 2.49 ± 0.73.
Under setting [2], MFLEISSYYDPGRLICDFPFDGLL [VPS39] showed a protein stability index of 3.39 ± 1.3.
As to MGKRYFCDYCDRSFQDNLHNRKKH [ZMAT5], the protein stability index under setting [1] was 3.03 ± 0.33 and the protein stability index under setting [2] was determined as 3.42 ± 0.34.
Taken in the same sequence, the figures for MGQCRSANAEDAQEFSDVERAIET [S100A14] were 4.99 ± 0.32 and 5.15 ± 0.2.
The matching figures for MGSQHSAAARPSSCRRKQEDDRDG [TMEM106C]: 5.22 ± 0.15 and 5.4 ± 0.15.
The matching figures for MHRLGEPQARMREENMERIGEEVR [BEX1]: 5.14 ± 0.13 and 5.2 ± 0.21.
For the sequence MKFAQVFGCFFYVYYIFERLCAPL [SOAT1], the protein stability index amounted to 2.89 ± 0.54 under setting [1] and 2.87 ± 0.51 under setting [2].
Taken in the same sequence, the figures for MKYTSEKFLEICKLSGFMSKLVPA [TPRG1] were 3.05 ± 1 and 2.56 ± 0.45.
MMSLTKLADKELVHMISWAKKIPG [ESR2]: the protein stability index under setting [1] came out at 2.17 ± 0.19 and the protein stability index under setting [2] turned out to be 2.16 ± 0.12.
Taken in the same sequence, the figures for MNRSIPVEVDESEPYPSQLLKPIP [TRAF3IP2] were 4.44 ± 0.19 and 4.45 ± 0.34.
MNYRRLGGGVGVIKMTHCESHIW [KLHL20]: the protein stability index came to 2.75 ± 0.32 (treatment: DMSO, c terminus: native) and 2.34 ± 0.31 (treatment: MLN4924 1 uM, 8 h, c terminus: native).
In the case of MPDYMILQELKKLKNSNYESIQQT [PPTC7], the protein stability index is, setting by setting: under setting [1], 2.5 ± 0.41; under setting [2], 2.93 ± 0.39.
The matching figures for MPRAPKRQRCMPEEDLQSQSETQG [MAGEA10]: 5.02 ± 0.42 and 5.05 ± 0.12.
For the sequence MQVDKKRVYLATDDPSLLKEAKTK [FUT8], the protein stability index is 4.06 ± 0.21 under setting [1] and 3.92 ± 0.32 under setting [2].
Taken in the same sequence, the figures for MQVNPISKRMGPMTVVRMDASVQP [RHOBTB1] were 3.48 ± 0.19 and 3.43 ± 0.2.
Taken in the same sequence, the figures for MRQRISRVEESALRALREKLFAHS [PPEF2] were 2.72 ± 0.24 and 2.71 ± 0.33.
Take MSDKYHDSDEATAARLLFNMAGVT [DCTD]: the protein stability index reads like this: under setting [1], 3.53 ± 0.25; under setting [2], 3.54 ± 0.36.
In the case of MSPSLQEGAQLGENKPSTCSFSIE [HESX1], the protein stability index is, setting by setting: under setting [1], 4.95 ± 0.3; under setting [2], 5.07 ± 0.18.
